# PMC11224109, “Synthesis and preclinical evaluation of novel ^18F-vancomycin-based tracers for the detection of bacterial infections using positron emission tomography” (European Journal of Nuclear Medicine and Molecular Imaging, 2024)
# How the values were obtained:
# [1] = Summary of tracer stability in vitro and in vivo
# Experimental: Stability of the tracers was determined in PBS and human plasma. In a typical experiment, 1 MBq of radioactivity (10–20 µL) was added to 250 µL of PBS or human plasma. Samples were heated to 37 °C on a shaker and sampled at fixed intervals. For samples containing human plasma, protein was precipitated using two volumes of cold MeCN. Precipitated samples were briefly centrifuged to pellet the insoluble fraction and supernatant was used for stability assessment. Supernatant (1 µL) was loaded on a TLC plate and imaged using BAS-IP MS 2025 E plates (Fujifilm, Tokyo, Japan) on an Amersham Typhoon Biomolecular Imager (GE Healthcare Bio-Sciences Corp, Chicago, United States) equipped with a phosphor imaging stage. [^18F]BODIPY-FL-vancomycin has an Rf of 0.68 (petroleum ether/MeOH 3:1), [^18F]FB-vancomycin has an Rf of 0.66 (2 M NaOAc/MeOH 5:1). For [^18F]PQ-VE1-vancomycin, conditions described in [44] were used.
# [2] = Distribution coefficient LogD7.4, shake-flask n-octanol/PBS; assay type: physicochemical; conditions: shake-flask n-octanol/PBS pH 7.4, 500 µL each, 10 µL tracer in saline, vortexed 30 s, shaken 15 min, gamma counter, mean ± SD
# Experimental: The tracer distribution coefficient in n-octanol/PBS pH 7.4 (LogD7.4) was determined using a shake-flask methodology. To an Eppendorf tube containing 500 µL n-octanol and 500 µL PBS, 10 µL tracer solution in saline was added. The vial was vortexed for 30 s and placed on an Eppendorf shaker for 15 min. After incubation, layers were separated by centrifugation (1 min at 10.000 rpm) and a fraction of the n-octanol layer was pipetted off. To minimize contamination of the bottom layer with the n-octanol layer, the bottom PBS layer was collected by puncturing the bottom of the Eppendorf tube with a 22G needle and aspirating a fraction of the PBS layer. Collected fractions were weighted to correct for collected volume and subsequently measured on a calibrated gamma counter and corrected for decay. LogD7.4 was calculated as [drawing 1] .
# [3] = system: Gram-positive bacteria; assay: Tracer binding to test panel of clinically relevant bacteria, Gram-positive; parameters: species or system C. acnes, E. faecalis, S. aureus, S. capitis, S. epidermidis; conditions: summary table
# Experimental: Clinical isolates of E. cloacae, S. capitis, S. aureus, as well as type strains of E. coli, E. faecalis, K. pneumoniae, P. aeruginosa and S. epidermidis were grown under aerobic conditions in brain heart infusion broth. A clinical isolate of the anaerobic bacterium C. acnes was grown on plate in an anaerobic chamber, and subsequently cultured in liquid medium with minimal headspace. Samples from fresh bacterial cultures were normalized to an OD600 of 1.0, fixed in PBS with 0.5% paraformaldehyde (PFA) for 10 min at room temperature, and resuspended in 1 mL sterile PBS. The fixated bacteria were incubated with tracer (133 kBq per mL, 42.8 pg and 0.6 pg of [^18F]BODIPY-FL-vancomycin and [^18F]PQ-VE1-vancomycin, respectively) and washed twice with sterile PBS. […] Measurements were corrected for background and decay. Results are reported as percentage of the total tracer added.
# [4] = in vivo; conditions: in vivo; for tissue uptake at 0.5 h / tissue uptake at 1 h / tissue uptake at 1.5 h: male, C57BL/6, mouse, 2 MBq, total radioactivity, Biodistribution
# Experimental: All murine experiments were approved by the Animal Care and Use Committee of the University of Groningen under license protocol number 2114768-01-001. In vivo biodistribution was performed in male C57BL/6 mice (age 8 weeks, 25 g). Per tracer, the animals were divided in three groups based on the tracer distribution times (30 min, 60 min, and 90 min). […] Each experimental arm (i.e. time point) consisted of three animals. […] Tracer was administered at t = 0 via penile vein injection (2.0 ± 0.9 MBq in 100 µL 0.9% saline solution, Supplemental Table 2). After tracer administration, the animals were transferred to a Siemens Focus 220 microPET small animal scanner (Siemens, Munich, Germany) and scanned for the designated time, followed by a transmission scan of 10 min for attenuation correction. PET data were normalized and corrected for decay, after which the PET data were reconstructed using OSEM2D-Z1-SC-256. The PET data frames used for reconstruction were: 6 × 10 s, 4 × 30 s, 2 × 60 s, 120 s, 180 s, 4 × 300 s, 3 × 600 s, 1200 s or until the designated scan time was reached, taking into account a 10-min transmission scan following the emission scan. Next, animals were terminated, and organs harvested to assay biodistribution in a calibrated gamma counter (Wizard2, Perkin Elmer, Waltham, United States).
structure (smiles),measurement,setting,value
Cc1cc(C)n2c1C=C1C=CC(CCC(=O)N(C)[C@H](CC(C)C)C(=O)N[C@H]3C(=O)N[C@@H](CC(N)=O)C(=O)N[C@H]4C(=O)N[C@H]5C(=O)N[C@H](C(=O)N[C@H](C(=O)O)c6cc(O)cc(O)c6-c6cc5ccc6O)[C@H](O)c5ccc(c(Cl)c5)Oc5cc4cc(c5O[C@@H]4O[C@H](CO)[C@@H](O)[C@H](O)[C@H]4O[C@H]4C[C@](C)(N)[C@H](O)[C@H](C)O4)Oc4ccc(cc4Cl)[C@H]3O)=[N+]1[B-]2(F)F [[^18F]BODIPY-FL-vancomycin],Stability,[1],Stable in vitro and in vivo up to 2 h.
same,LogD7.4,[2],-1.72 ± 0.02 (n = 10)
same,Binding to Gram-positive bacteria in vitro,[3],LogD7.4 -1.72. Am 5.35 GBq/µmol. MIC 16 µg/mL. Binding to Gram-positive bacteria in vitro.
same,tissue uptake at 0.5 h,"[4]; iv, Bladder",4.83 %ID/g
same,tissue uptake at 1 h,"[4]; iv, Bladder",7.62 %ID/g
same,tissue uptake at 1.5 h,"[4]; iv, Bladder",9.43 %ID/g
same,tissue uptake at 0.5 h,"[4]; iv, Bone",1.2 %ID/g
same,tissue uptake at 1 h,"[4]; iv, Bone",2.71 %ID/g
same,tissue uptake at 1.5 h,"[4]; iv, Bone",3.27 %ID/g
same,tissue uptake at 0.5 h,"[4]; iv, Brain",0.05 %ID/g
same,tissue uptake at 1 h,"[4]; iv, Brain",0.09 %ID/g
same,tissue uptake at 1.5 h,"[4]; iv, Brain",0.05 %ID/g
same,tissue uptake at 0.5 h,"[4]; iv, Fat",0.59 %ID/g
same,tissue uptake at 1 h,"[4]; iv, Fat",0.67 %ID/g
same,tissue uptake at 1.5 h,"[4]; iv, Fat",0.49 %ID/g
same,tissue uptake at 0.5 h,"[4]; iv, Heart",0.96 %ID/g
same,tissue uptake at 1 h,"[4]; iv, Heart",1.25 %ID/g
same,tissue uptake at 1.5 h,"[4]; iv, Heart",0.81 %ID/g
same,tissue uptake at 0.5 h,"[4]; iv, Kidneys",7.77 %ID/g
same,tissue uptake at 1 h,"[4]; iv, Kidneys",7.13 %ID/g
same,tissue uptake at 1.5 h,"[4]; iv, Kidneys",7 %ID/g
same,tissue uptake at 0.5 h,"[4]; iv, Large intestine",0.93 %ID/g
same,tissue uptake at 1 h,"[4]; iv, Large intestine",1.34 %ID/g
same,tissue uptake at 1.5 h,"[4]; iv, Large intestine",0.91 %ID/g
same,tissue uptake at 0.5 h,"[4]; iv, Liver",2.27 %ID/g
same,tissue uptake at 1 h,"[4]; iv, Liver",3.47 %ID/g
same,tissue uptake at 1.5 h,"[4]; iv, Liver",2.86 %ID/g
same,tissue uptake at 0.5 h,"[4]; iv, Lungs",4.59 %ID/g
same,tissue uptake at 1 h,"[4]; iv, Lungs",6.68 %ID/g
same,tissue uptake at 1.5 h,"[4]; iv, Lungs",4.39 %ID/g
same,tissue uptake at 0.5 h,"[4]; iv, Muscle",0.42 %ID/g
same,tissue uptake at 1 h,"[4]; iv, Muscle",0.66 %ID/g
same,tissue uptake at 1.5 h,"[4]; iv, Muscle",0.46 %ID/g
same,tissue uptake at 0.5 h,"[4]; iv, Plasma",2.41 %ID/g
same,tissue uptake at 1 h,"[4]; iv, Plasma",3.25 %ID/g
same,tissue uptake at 1.5 h,"[4]; iv, Plasma",2.13 %ID/g
same,tissue uptake at 0.5 h,"[4]; iv, Small intestine",1.1 %ID/g
same,tissue uptake at 1 h,"[4]; iv, Small intestine",2.01 %ID/g
same,tissue uptake at 1.5 h,"[4]; iv, Small intestine",1.89 %ID/g
same,tissue uptake at 0.5 h,"[4]; iv, Spleen",1.41 %ID/g
same,tissue uptake at 1 h,"[4]; iv, Spleen",3.02 %ID/g
same,tissue uptake at 1.5 h,"[4]; iv, Spleen",2.73 %ID/g
same,tissue uptake at 0.5 h,"[4]; iv, Stomach",1.16 %ID/g
same,tissue uptake at 1 h,"[4]; iv, Stomach",1.59 %ID/g
same,tissue uptake at 1.5 h,"[4]; iv, Stomach",0.98 %ID/g
same,tissue uptake at 0.5 h,"[4]; iv, Whole blood",1.68 %ID/g
same,tissue uptake at 1 h,"[4]; iv, Whole blood",1.86 %ID/g
same,tissue uptake at 1.5 h,"[4]; iv, Whole blood",1.1 %ID/g
same,Accumulation,[4]; mouse,"Accumulation in liver, kidneys and lungs"
same,Muscle uptake,[4]; mouse,Low muscle uptake
same,Crossing of the blood-brain barrier (BBB),"[4]; mouse, iv",no substantial signal was observed in the brain
